Reference: the Human Domainome abundance scans (Beltran et al. 2025)
± gives the uncertainty stated by the source.

B1: Protein C-ets-1, residues 55 to 135; numbered along this chain, P14921 (parent)
chain: GFTKEQQRLGIPKDPRQWTETHVRDWVMWAVNEFSLKGVDFQKFCMNGAALCALGKDCFLELAPDFVGDILWEHLEILQKE

Variants of: B1
Test: abundance fitness (aPCA) (normalised: wild type 0, dead -1); higher = more abundant; growth selection in yeast, the domain comes from the species named
Settings: Homo sapiens

Variant	abundance fitness
D14I	-0.76 ± 0.11
D14F	-0.443 ± 0.052
D14V	-0.602 ± 0.033
L36I	-0.215 ± 0.13
L36E	-1 ± 0.2
L36A	-0.52 ± 0.031
V31K	-0.18 ± 0.054
V31T	0.006 ± 0.044
V31R	-0.274 ± 0.027
P64W	-0.938 ± 0.12
P64V	-0.836 ± 0.085
P64F	-0.896 ± 0.22
A50H	-0.076 ± 0.079
A50D	0.026 ± 0.05
A50G	-0.202 ± 0.029
S35G	0.012 ± 0.027
S35I	-0.539 ± 0.15
S35Q	0.062 ± 0.062
S35Y	-0.288 ± 0.063
S35F	-0.413 ± 0.063
K37E	0.044 ± 0.047
K37A	-0.046 ± 0.033
K37I	-0.064 ± 0.081
K37H	-0.048 ± 0.068

Variant	abundance fitness
K37N	-0.033 ± 0.057
K37R	-0.076 ± 0.027
K37G	-0.054 ± 0.03
G1A	-0.091 ± 0.076
G1Y	-0.114 ± 0.2
G1R	-0.191 ± 0.067
G1I	-0.077 ± 0.16
T21M	-0.058 ± 0.059
T21L	-0.064 ± 0.037
T21I	-0.143 ± 0.056
T21G	-0.008 ± 0.029
T21R	0.039 ± 0.029
L51A	-0.847 ± 0.055
L51C	-0.803 ± 0.12
L51E	-0.952 ± 0.093
L51W	-0.893 ± 0.084
L54D	-0.791 ± 0.092
L54P	-0.775 ± 0.072
L54Y	-0.292 ± 0.033
L54R	-0.238 ± 0.028
L54M	-0.022 ± 0.05
L54K	-0.102 ± 0.05
L54S	-0.445 ± 0.032
P12Q	-0.814 ± 0.12

Variant	abundance fitness
M28K	-0.016 ± 0.04
M28V	0.009 ± 0.032
M28R	-0.004 ± 0.029
D40L	-0.482 ± 0.056
D40R	-0.245 ± 0.038
D40E	-0.059 ± 0.055
D40S	-0.164 ± 0.037
D40Q	-0.045 ± 0.089
D40M	-0.368 ± 0.037
D40K	-0.234 ± 0.09
P15F	-0.935 ± 0.14
P15M	-0.286 ± 0.081
P15G	-0.845 ± 0.068
P15D	-1.15 ± 0.45
K43Y	-0.351 ± 0.078
K43G	-0.289 ± 0.038
K43I	-0.424 ± 0.11
L9W	-0.192 ± 0.043
L9K	-0.139 ± 0.082
L9G	-0.195 ± 0.028
L9C	-0.088 ± 0.089
L9V	-0.126 ± 0.036
L9A	-0.182 ± 0.041
L9P	-0.32 ± 0.072

Variant	abundance fitness
I70P	-0.289 ± 0.039
I70M	-0.102 ± 0.063
I70Q	-0.035 ± 0.059
I70R	-0.036 ± 0.025
I70W	-0.398 ± 0.048
N32I	-0.193 ± 0.073
N32D	0.046 ± 0.051
N32L	-0.179 ± 0.039
N32M	-0.119 ± 0.055
N32V	-0.111 ± 0.031
N32W	-0.332 ± 0.05
N32A	-0.001 ± 0.032
R8C	-0.154 ± 0.052
R8P	-0.132 ± 0.047
R8I	-0.17 ± 0.12
F41K	-0.072 ± 0.062
F41I	0.022 ± 0.055
F41T	0.007 ± 0.047
F41M	0.056 ± 0.067
F41R	-0.094 ± 0.03
F41V	0.044 ± 0.028
F41G	-0.128 ± 0.031
E73Q	-0.032 ± 0.063
E73L	-0.246 ± 0.035

Variant	abundance fitness
E73M	-0.277 ± 0.068
N47W	-1.01 ± 0.1
N47D	-0.007 ± 0.084
N47P	0.014 ± 0.044
N47K	-0.204 ± 0.082
L75A	-0.921 ± 0.12
L75R	-0.863 ± 0.058
L75C	-0.964 ± 0.13
L75T	-1.02 ± 0.17
C58Q	0.045 ± 0.044
C58M	-0.009 ± 0.042
C58T	0.016 ± 0.042
C58Y	0.008 ± 0.048
C58E	0.05 ± 0.04
A49Q	-0.011 ± 0.037
A49Y	-0.262 ± 0.043
A49M	-0.055 ± 0.032
A49I	-0.237 ± 0.04
R24F	-0.287 ± 0.088
R24K	0.096 ± 0.075
R24I	-0.133 ± 0.12
G38M	-0.273 ± 0.048
G38W	-0.467 ± 0.047
G38I	-0.428 ± 0.12

Variant	abundance fitness
G38C	-0.334 ± 0.071
G38Q	-0.221 ± 0.062
G38K	-0.055 ± 0.082
C52K	-0.627 ± 0.052
C52V	-0.066 ± 0.027
C52N	-0.497 ± 0.075
F2D	-0.143 ± 0.09
F2S	-0.365 ± 0.048
F2G	-0.272 ± 0.04
F2K	-0.232 ± 0.14
F2I	-0.355 ± 0.11
K4Q	-0.031 ± 0.054
K4P	-0.325 ± 0.068
K4H	-0.148 ± 0.076
D57Q	-0.073 ± 0.045
D57F	-0.303 ± 0.065
D57C	-0.106 ± 0.065
D57T	-0.058 ± 0.039
D57P	-0.109 ± 0.033
D57E	0.001 ± 0.045
I77F	-0.013 ± 0.067
I77C	-0.021 ± 0.053
I77L	0.053 ± 0.041
I77D	-0.033 ± 0.1

Variant	abundance fitness
I77P	-0.346 ± 0.057
I77G	0.027 ± 0.035
I77K	0.052 ± 0.094
V67Y	-0.319 ± 0.13
V67G	-0.018 ± 0.038
Q6K	-0.143 ± 0.08
Q6V	-0.096 ± 0.027
Q6Y	-0.058 ± 0.078
V23Q	-0.909 ± 0.11
V23Y	-0.955 ± 0.2
V23A	-0.631 ± 0.054
V23H	-0.838 ± 0.24
F34R	-0.3 ± 0.029
F34W	-0.039 ± 0.042
F34H	-0.084 ± 0.059
F34E	-0.425 ± 0.045
W18Q	-0.899 ± 0.23
W18F	-1.11 ± 0.2
W18K	-1.01 ± 0.18
W18L	-0.954 ± 0.077
G55E	0.031 ± 0.046
G55Q	-0.08 ± 0.055
G55N	0.03 ± 0.085
